Source: US20120135923A1, “Use of Melanocortins to Treat Dyslipidemia” (IPSEN PHARMA, S.A.S., priority 2009, published 2012)
Bridge positions count the residues as written; N and C are the ends. Square brackets hold non-standard residues; d marks the D form.

What was measured:
hMC5-R (human) [1] = molecular target: hMC5-R (human) (UniProt P33032); assay: competition with [125I]-NDP-α-MSH, CHO-K1 membranes
hMC1-R (human) [2] = molecular target: hMC1-R (human) (UniProt Q01726); assay: as above
hMC3-R (human) [3] = molecular target: hMC3-R (human) (UniProt P41968); assay: as above
hMC3-R (human), sequence (P41968 whole entry): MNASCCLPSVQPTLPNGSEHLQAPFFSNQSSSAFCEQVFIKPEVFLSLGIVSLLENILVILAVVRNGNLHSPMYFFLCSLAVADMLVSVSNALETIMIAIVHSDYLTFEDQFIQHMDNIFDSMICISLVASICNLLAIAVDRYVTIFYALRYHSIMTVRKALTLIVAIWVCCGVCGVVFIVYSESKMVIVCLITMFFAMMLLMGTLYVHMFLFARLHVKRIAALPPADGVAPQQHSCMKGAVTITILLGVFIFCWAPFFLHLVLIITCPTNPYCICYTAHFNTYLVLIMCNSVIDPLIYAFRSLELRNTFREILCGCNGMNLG

hMC4-R (human) [4] = molecular target: hMC4-R (human) (UniProt P32245); assay: as above
hMC4-R (human), sequence (P32245 whole entry): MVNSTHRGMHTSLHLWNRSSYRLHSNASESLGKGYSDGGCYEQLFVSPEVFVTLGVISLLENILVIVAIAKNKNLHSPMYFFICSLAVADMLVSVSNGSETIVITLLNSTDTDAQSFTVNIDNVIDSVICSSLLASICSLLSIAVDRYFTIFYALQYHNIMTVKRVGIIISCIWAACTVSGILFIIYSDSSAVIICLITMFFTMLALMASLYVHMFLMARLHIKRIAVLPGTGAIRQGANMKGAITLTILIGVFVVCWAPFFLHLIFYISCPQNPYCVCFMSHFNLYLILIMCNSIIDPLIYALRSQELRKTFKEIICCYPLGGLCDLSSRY

hMC1-R (human) [5] = molecular target: hMC1-R (human) (UniProt Q01726); assay: ratio Ki hMC1-R / Ki hMC4-R, same assay
hMC5-R (human) [6] = molecular target: hMC5-R (human) (UniProt P33032); assay: cell-based or functional assay
hMC1-R (human) [7] = molecular target: hMC1-R (human) (UniProt Q01726); assay: cell-based or functional assay
hMC3-R (human) [8] = molecular target: hMC3-R (human) (UniProt P41968); assay: cell-based or functional assay
hMC4-R (human) [9] = molecular target: hMC4-R (human) (UniProt P32245); assay: cell-based or functional assay
[10] = molecular target: human melanocortin receptor subtype 1 (hMC1-R) (human) (UniProt Q01726); assay: [125I]-NDP-α-MSH competition, membranes
human melanocortin receptor subtype 1 (hMC1-R) (human), sequence (Q01726 whole entry): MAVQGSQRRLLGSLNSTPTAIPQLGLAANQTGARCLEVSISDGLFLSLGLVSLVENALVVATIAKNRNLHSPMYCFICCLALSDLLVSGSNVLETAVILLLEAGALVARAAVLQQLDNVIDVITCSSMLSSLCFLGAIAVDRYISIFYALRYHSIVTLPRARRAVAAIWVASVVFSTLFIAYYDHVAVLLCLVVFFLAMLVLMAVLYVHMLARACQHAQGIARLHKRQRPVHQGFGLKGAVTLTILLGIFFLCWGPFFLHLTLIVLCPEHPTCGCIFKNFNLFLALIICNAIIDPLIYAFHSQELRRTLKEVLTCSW

[11] = molecular target: human melanocortin receptor subtype 4 (hMC4-R) (human) (UniProt P32245); assay: [125I]-NDP-α-MSH competition, membranes
human melanocortin receptor subtype 4 (hMC4-R) (human), sequence (P32245 whole entry): as the sequence (P32245 whole entry) above

[12] = molecular target: human melanocortin receptor subtype 5 (hMC5-R) (human) (UniProt P33032); assay: [125I]-NDP-α-MSH competition, membranes
human melanocortin receptor subtype 5 (hMC5-R) (human), sequence (P33032 whole entry): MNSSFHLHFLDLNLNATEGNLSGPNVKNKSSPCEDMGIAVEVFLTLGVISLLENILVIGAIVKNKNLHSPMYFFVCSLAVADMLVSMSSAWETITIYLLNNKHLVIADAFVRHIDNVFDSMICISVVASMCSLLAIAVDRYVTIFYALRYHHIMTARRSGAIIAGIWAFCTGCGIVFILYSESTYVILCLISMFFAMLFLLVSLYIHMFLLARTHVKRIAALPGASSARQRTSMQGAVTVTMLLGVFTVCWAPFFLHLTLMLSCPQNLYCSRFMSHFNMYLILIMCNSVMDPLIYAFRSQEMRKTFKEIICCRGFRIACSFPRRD

[13] = molecular target: human melanocortin receptor subtype 3 (hMC3-R) (human) (UniProt P41968); assay: [125I]-NDP-α-MSH competition, membranes
human melanocortin receptor subtype 3 (hMC3-R) (human), sequence (P41968 whole entry): as the sequence (P41968 whole entry) above

hMC1-R (human), sequence (Q01726 whole entry): as the sequence (Q01726 whole entry) above
hMC5-R (human), sequence (P33032 whole entry): as the sequence (P33032 whole entry) above

Ac-Cha-c(Asp-His-D-2-Nal-Arg-Trp-Gaba-Lys)-NH2 (peptide)
Ki (hMC5-R (human) [1]): 3.91 nM | Ki (hMC1-R (human) [2]): 0.576 nM | Ki (hMC3-R (human) [3]): 3.98 nM | Ki (hMC4-R (human) [4]): 2.82 nM | Ki hMC1-R/MC4-R (hMC1-R (human) [5]): 0.2

Ac-Cha-c(Asp-His-D-Phe-Arg-Trp-Gaba-Lys)-NH2 (peptide; unit assumed)
cAMP EC50 (hMC5-R (human) [6]): 30.2 nM | cAMP EC50 (hMC1-R (human) [7]): 3.26 nM | cAMP EC50 (hMC3-R (human) [8]): 0.189 nM | cAMP EC50 (hMC4-R (human) [9]): 0.0949 nM

Ac-D-Arg-c(Asp-His-D-Phe-Arg-Trp-Ala-Lys)-NH2 (peptide; unit assumed)
cAMP EC50 (hMC5-R (human) [6]): 297 nM | cAMP EC50 (hMC1-R (human) [7]): 1.48 nM | cAMP EC50 (hMC3-R (human) [8]): 5.76 nM | cAMP EC50 (hMC4-R (human) [9]): 0.078 nM

Ac-D-Arg-c(Cys-D-Ala-His-D-Phe-Arg-Trp-Cys)-NH2 (peptide)
Ki (hMC5-R (human) [1]): 352 nM

Ac-D-Arg-c(Cys-D-Ala-His-D-Phe-Arg-Trp-Pen)-NH2 (peptide)
Ki (hMC5-R (human) [1]): 816 nM | Ki (hMC1-R (human) [2]): 8.29 nM | Ki (hMC3-R (human) [3]): 13.3 nM

Ac-Nle-c(Asp-His-D-2-Nal-Arg-Trp-β-Ala-Lys)-NH2 (peptide)
Ki (hMC1-R (human) [2]): 0.648 nM

Ac-Nle-c(Asp-His-D-Phe-Arg-Trp-Gaba-Lys)-NH2 (peptide; unit assumed)
cAMP EC50 (hMC5-R (human) [6]): 3.48 nM | cAMP EC50 (hMC1-R (human) [7]): 1.37 nM | cAMP EC50 (hMC3-R (human) [8]): 0.628 nM | cAMP EC50 (hMC4-R (human) [9]): 0.131 nM

Ac-Nle-c(Asp-His-D-Phe-Arg-Trp-β-Ala-Lys)-NH2 (peptide; unit assumed)
cAMP EC50 (hMC5-R (human) [6]): 2.79 nM | cAMP EC50 (hMC1-R (human) [7]): 0.834 nM | cAMP EC50 (hMC3-R (human) [8]): 0.145 nM | cAMP EC50 (hMC4-R (human) [9]): 0.128 nM

Ac-Nle-c(Cys-3-Pal-D-Phe-Arg-Trp-Gaba-Cys)-NH2 (peptide)
Ki (hMC5-R (human) [1]): 92.6 nM | Ki (hMC1-R (human) [2]): 21.1 nM | Ki (hMC3-R (human) [3]): 151 nM

Ac-Nle-c(Cys-D-Ala-His-D-2-Nal-Arg-Bal-Cys)-NH2 (peptide)
Ki (hMC5-R (human) [1]): 125 nM | Ki (hMC1-R (human) [2]): 22.2 nM | Ki (hMC3-R (human) [3]): 12.7 nM | Ki (hMC4-R (human) [4]): 16.6 nM | Ki hMC1-R/MC4-R (hMC1-R (human) [5]): 1.34

Ac-Nle-c(Cys-D-Ala-His-D-2-Nal-Arg-Trp-Cys)-NH2 (peptide; unit assumed)
cAMP EC50 (hMC5-R (human) [6]): 11.8 nM | cAMP EC50 (hMC1-R (human) [7]): 17.6 nM | cAMP Kb (hMC3-R (human) [8]): 12.4 nM | cAMP Kb (hMC4-R (human) [9]): 38.8 nM

Ac-Nle-c(Cys-D-Ala-His-D-Phe-Arg-Trp-Cys)-NH2 (peptide; unit assumed)
cAMP EC50 (hMC5-R (human) [6]): 420 nM | cAMP EC50 (hMC1-R (human) [7]): 2.4 nM | cAMP EC50 (hMC3-R (human) [8]): 0.33 nM | cAMP EC50 (hMC4-R (human) [9]): 0.078 nM

Ac-Nle-c(Cys-D-Ala-His-D-Phe-Arg-Trp-Pen)-NH2 (peptide; unit assumed)
cAMP EC50 (hMC5-R (human) [6]): 2240 nM | cAMP EC50 (hMC1-R (human) [7]): 14.3 nM | cAMP EC50 (hMC3-R (human) [8]): 2.03 nM | cAMP EC50 (hMC4-R (human) [9]): 0.183 nM

Ac-Nle-c(Cys-D-Cha-His-D-Phe-Arg-Trp-Cys)-NH2 (peptide; unit assumed)
cAMP EC50 (hMC5-R (human) [6]): 45.3 nM | cAMP EC50 (hMC1-R (human) [7]): 0.819 nM | cAMP EC50 (hMC3-R (human) [8]): 0.541 nM | cAMP EC50 (hMC4-R (human) [9]): 0.453 nM

Ac-WRC[dA]H[dF]RWC-NH2 (disulfide 3-9)
cAMP EC50 (hMC5-R (human) [6]): 2580 nM | cAMP EC50 (hMC1-R (human) [7]): 5.78 nM | cAMP EC50 (hMC3-R (human) [8]): 3.95 nM | cAMP EC50 (hMC4-R (human) [9]): 0.219 nM

Ac-hCha-c(Asp-His-D-Phe-Arg-Trp-Gaba-Lys)-NH2 (peptide; unit assumed)
cAMP EC50 (hMC5-R (human) [6]): 415 nM | cAMP EC50 (hMC1-R (human) [7]): 2.27 nM | cAMP EC50 (hMC3-R (human) [8]): 3.32 nM | cAMP EC50 (hMC4-R (human) [9]): 7.24 nM

Ac-hPhe-c(Asp-His-D-2-Nal-Arg-Trp-Gaba-Lys)-NH2 (peptide)
Ki (hMC1-R (human) [2]): 0.461 nM | Ki (hMC3-R (human) [3]): 2.45 nM | Ki (hMC4-R (human) [4]): 0.931 nM

Ac-hPhe-c(Asp-His-D-2-Nal-Arg-Trp-Gaba-Lys)-NH2 (peptide; unit assumed)
cAMP EC50 (hMC5-R (human) [6]): 0.307 nM | cAMP EC50 (hMC1-R (human) [7]): 0.413 nM | cAMP Kb (hMC3-R (human) [8]): 9.32 nM | cAMP Kb (hMC4-R (human) [9]): 0.824 nM

D-Phe-c(Cys-His-D-(Et)Tyr-hArg-Trp-β-Ala-D-Cys)-Thr-NH2 (peptide)
Ki (hMC5-R (human) [1]): 9.27 nM | Ki (hMC1-R (human) [2]): 0.0567 nM | Ki (hMC3-R (human) [3]): 31.4 nM | Ki (hMC4-R (human) [4]): 14.7 nM | Ki hMC1-R/MC4-R (hMC1-R (human) [5]): 0

Hydantoin(C(O)-(D-Ala-Gly))-c(Cys-D-Ala-His-D-Phe-Arg-Trp-Cys)-NH2 (peptide)
cAMP EC50 (hMC5-R (human) [6]): 355 nM | Ki [10]: 11.7 nM | Ki [11]: 4.28 nM | Ki [12]: 34.7 nM

Hydantoin(C(O)-(D-Ala-Nle))-c(Cys-D-Ala-His-D-Phe-Arg-Trp-Cys)-NH2 (peptide)
Ki [10]: 16 nM | Ki [12]: 1820 nM | Ki [13]: 63.9 nM

Hydantoin(C(O)-(D-Arg-Gly))-c(Cys-D-Ala-His-D-Phe-Arg-Trp-Cys)-NH2 (peptide)
cAMP EC50 (hMC5-R (human) [6]): 3950 nM | Ki [10]: 3.52 nM | Ki [11]: 5.78 nM | Ki [12]: 872 nM | Ki [13]: 48.7 nM

Hydantoin(C(O)-(D-Arg-Gly))-c(Cys-Glu-His-D-Phe-Arg-Trp-Cys)-NH2 (peptide)
cAMP EC50 (hMC5-R (human) [6]): 2710 nM | Ki [10]: 9.49 nM | Ki [11]: 2.95 nM | Ki [12]: 2260 nM | Ki [13]: 124 nM

Hydantoin(C(O)-(Gly-D-Arg))-c(Cys-Glu-His-D-Phe-Arg-Trp-Cys)-NH2 (peptide)
cAMP EC50 (hMC5-R (human) [6]): 7440 nM | Ki [10]: 4.3 nM | Ki [11]: 1.77 nM | Ki [12]: 4540 nM | Ki [13]: 78 nM
